Assay results reported in patent US20080207501A1 (AMYLIN PHARMACEUTICALS, published 2008).
Ends that are not written are not given here.

T1: adrenomedullin receptor (receptor binding assay)
T1 chain 1: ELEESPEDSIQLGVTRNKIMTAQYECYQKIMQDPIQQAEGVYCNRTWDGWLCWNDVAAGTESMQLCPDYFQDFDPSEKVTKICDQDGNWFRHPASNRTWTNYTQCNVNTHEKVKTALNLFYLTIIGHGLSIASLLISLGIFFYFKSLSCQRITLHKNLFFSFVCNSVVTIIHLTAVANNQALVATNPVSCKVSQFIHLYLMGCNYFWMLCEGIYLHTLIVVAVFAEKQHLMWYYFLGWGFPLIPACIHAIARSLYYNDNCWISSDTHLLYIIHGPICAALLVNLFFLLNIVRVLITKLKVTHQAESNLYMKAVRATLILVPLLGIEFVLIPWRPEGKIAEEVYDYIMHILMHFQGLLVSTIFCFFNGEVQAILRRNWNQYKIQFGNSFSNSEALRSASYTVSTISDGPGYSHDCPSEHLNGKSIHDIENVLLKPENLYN
T1 chain 2: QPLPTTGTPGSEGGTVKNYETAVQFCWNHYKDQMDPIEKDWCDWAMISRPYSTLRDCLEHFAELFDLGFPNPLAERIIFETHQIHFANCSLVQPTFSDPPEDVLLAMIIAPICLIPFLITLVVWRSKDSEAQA


Assays:
[1] = target: T2, calcitonin receptor (receptor binding assay); test: calcitonin receptor binding assay, method not described
T2 construct: also called rCalcitonin RBA; CT

[2] = target: T1, adrenomedullin receptor (receptor …); test: adrenomedullin receptor binding assay, method not described
[3] = target: T3, CGRP receptor (membranes prepared from SK-N-MC cells) (UniProt Q16602 23-461; O60894 27-148, limits assumed); test: radioligand displacement, 125I-hCGRP, SK-N-MC cell membranes
T3 construct: whole, on cells; Endogenous receptor in SK-N-MC cell membranes; also called CGRP receptors; CGRP RBA
T3 sequence (O60894 27-148 limits assumed, chain 2 of 2, one chain of several): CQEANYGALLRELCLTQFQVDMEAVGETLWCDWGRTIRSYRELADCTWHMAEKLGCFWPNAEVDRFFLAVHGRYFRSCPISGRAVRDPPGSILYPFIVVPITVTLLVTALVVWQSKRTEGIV
Experimental: (§1) Solutions were incubated for 60 minutes at 2 C. […] Filters were washed immediately before filtration with 5 ml cold PBS, and immediately after filtration with 15 ml cold PBS. […] Competition curves were generated by measuring binding in the presence of 10⁻¹² to 10⁻⁶ M unlabeled test compound and were analyzed by nonlinear regression using a 4-parameter logistic equation (INPLOT program; […] Software, San Diego, Calif.).

[4] = target: amylin receptor (nucleus accumbens membranes prepared from rat brain) (rat, UniProt P32214 25-516); test: radioligand displacement, 125I-rat amylin, rat nucleus accumbens membranes
Sequence of amylin receptor (nucleus accumbens membranes prepared from rat brain) (P32214 25-516): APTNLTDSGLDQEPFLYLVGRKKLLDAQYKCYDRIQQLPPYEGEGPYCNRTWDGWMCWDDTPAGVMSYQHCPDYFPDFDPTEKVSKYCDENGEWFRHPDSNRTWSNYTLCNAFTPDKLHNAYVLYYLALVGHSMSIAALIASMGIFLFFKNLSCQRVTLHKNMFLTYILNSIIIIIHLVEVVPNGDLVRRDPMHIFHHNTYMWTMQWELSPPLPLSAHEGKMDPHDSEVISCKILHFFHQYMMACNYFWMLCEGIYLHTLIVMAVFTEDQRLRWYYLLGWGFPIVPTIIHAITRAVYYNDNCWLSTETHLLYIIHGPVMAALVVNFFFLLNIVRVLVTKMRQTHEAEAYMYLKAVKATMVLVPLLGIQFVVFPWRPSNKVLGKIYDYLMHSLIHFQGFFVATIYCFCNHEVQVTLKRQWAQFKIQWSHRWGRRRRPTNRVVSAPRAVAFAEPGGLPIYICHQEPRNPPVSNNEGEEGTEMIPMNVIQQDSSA
Experimental: Male Sprague-Dawley® rats (200-250) grams were sacrificed by decapitation. Brains were removed and place in cold phosphate-buffered saline (PBS). From the ventral surface, cuts were made rostral to the hypothalamus, bounded laterally by the olfactory tracts and extending at a 45° angle medially from these tracts. This basal forebrain tissue, containing the nucleus accumbens and surrounding regions, was weighed and homogenized in ice-cold 20 mM HEPES buffer (20 mM HEPES acid, pH adjusted to 7.4 with NaOH at 23° C.). Membranes were washed three times in fresh buffer by centrifugation for 15 minutes at 48,000×g. The final membrane pellet was resuspended in 20 mM HEPES buffer containing 0.2 mM phenylmethylsulfonyl fluoride (PMSF).
as §1

[5] = target: calcitonin receptor of CHO cells; test: cell-based or functional assay

Row | Binder | IC50 [1] [nM] | IC50 [2] [nM] | IC50 [3] [nM] | IC50 [4] [nM] | EC50, cAMP (AlphaScreen), CHO cells, Average [5] [nM] | EC50, cAMP (AlphaScreen), CHO cells, Experiment 1 [5] [nM] | EC50, cAMP (AlphaScreen), CHO cells, Experiment 2 [5] [nM] | EC50, cAMP (AlphaScreen), CHO cells, Experiment 3 [5] [nM]
1 | GCNTATCQVQNLSHRLWQLRQDSAPVDPSSPHSY-NH2 (ends and bridges not checked) [AFP-6 analog SEQ ID NO: 31] | 51 | 1000 | 18 | 12 | – | – | – | –
2 | GCVLGTCQVQNLSHRLWQLMGPAGRQDSAPVDPSSPHSY-NH2 (ends and bridges not checked) [AFP-6 analog SEQ ID NO: 11] | 27 | 11 | 0.93 | 7.7 | – | – | – | –
3 | VGCVLGTCQVQNLSHRLWQLMGPAGRQDSAPVDPSSPHSY-NH2 (not fully specified; ends and bridges not checked) [Human AFP-6 [8-47]] | 24 | 6.4 | – | 12 | – | – | – | –
4 | VGCVLGTCQVQNLSHRLWQLRQDSAPVDPSSPHSY-NH2 (ends and bridges not checked) [AFP-6 analog SEQ ID NO: 18] | 24 | 1000 | 3.6 | 18 | – | – | – | –
5 | VGCVLGTCQVQNLSHRLWQLRQDSAPVEPSSPHSY-NH2 (ends and bridges not checked) [AFP-6 analog SEQ ID NO: 36] | 198 | 1000 | 14 | 39 | – | – | – | –
6 | TQAQLLRVGCSNLSTCQVQNLSHRLWQLMGPAGRQDSAPVDPSSPHSY-NH2 (ends and bridges not checked) [AFP-6 analog SEQ ID NO: 20] | 16 | 36 | 25 | 1.9 | – | – | – | –
7 | TQAQLLRVGCNTATCQVQNLSHRLWQLMGPAGRQDSAPVDPSSPHSY-NH2 (ends and bridges not checked) [AFP-6 analog SEQ ID NO: 21] | 17 | 47 | 8.5 | 8.3 | – | – | – | –
8 | GCSNLSTCQVQNLSHRLWQLRQDSAPVEPSSPHSY-NH2 (ends and bridges not checked) [AFP-6 analog SEQ ID NO: 38] | 17 | – | 208 | 9.9 | – | – | – | –
9 | TQAQLLRVGCVLGTCQVQNLSHRLWQLRQDSAPVDPSSPHSY-NH2 (ends and bridges not checked) [AFP-6 analog SEQ ID NO: 16] | 22 | 1000 | 1.5 | 21 | – | – | – | –
10 | GCVLGTCQVQNLSHRLWQLRQESAPVEPSSPHSY-NH2 (ends and bridges not checked) [AFP-6 analog SEQ ID NO: 40] | – | 1000 | – | – | – | – | – | –
11 | TQAQLLRVGCVLGTCQVQNLSHRLWQLDSAPVDPSSPHSY-NH2 (ends and bridges not checked) [AFP-6 analog SEQ ID NO: 17] | – | 304 | 10.5 | 209 | – | – | – | –

Continued, values first:

Row | IC50 [1] [nM] | IC50 [2] [nM] | IC50 [3] [nM] | IC50 [4] [nM] | EC50, cAMP (AlphaScreen), CHO cells, Average [5] [nM] | EC50, cAMP (AlphaScreen), CHO cells, Experiment 1 [5] [nM] | EC50, cAMP (AlphaScreen), CHO cells, Experiment 2 [5] [nM] | EC50, cAMP (AlphaScreen), CHO cells, Experiment 3 [5] [nM] | Binder
12 | 121 | 1000 | 130 | 39 | – | – | – | – | GCNTATCQVQNLSHRLWQLRQDSAPVEPSSPHSY-NH2 (ends and bridges not checked) [AFP-6 analog SEQ ID NO: 37]
13 | 128 | 1000 | 37 | 19 | – | – | – | – | VCNTATCQVQNLSHRLWQLRQDSAPVDPSSPHSY-NH2 (ends and bridges not checked) [AFP-6 analog SEQ ID NO: 30]
14 | – | 37 | 26 | 48 | – | – | – | – | GMVLGTMQVQNLSHRLWQLMGPAGRQDSAPVDPSSPHSY-NH2 [AFP-6 analog SEQ ID NO: 26]
15 | – | 59 | – | – | – | – | – | – | VQNLSHRLWQLMGPAGRQDSAPVDPSSPHSY-NH2 [AFP-6 analog SEQ ID NO: 14]
16 | 9 | 1000 | 111 | 7.5 | – | – | – | – | VGCGNLSTCQVQNLSHRLWQLRQDSAPVDPSSPHSY-NH2 (ends and bridges not checked) [AFP-6 analog SEQ ID NO: 29]
17 | – | – | – | – | 24 | 21.6 | 30.9 | 19.6 | KCNTATCATQRLANFLVRSSNNLGPVLPPTNVGSNTY (peptide, UniProt P12969 38-74, looked up) [rat amylin]
18 | – | – | – | – | 0.097 | 0.077 | – | 0.075 | CGNLSTCMLGTYTQDFNKFHTFPQTAIGVGAP-NH2 (ends and bridges not checked) [Human Calcitonin]
19 | 153 | 37 | 4.7 | 17 | – | – | – | – | VGCVLGTCQVQNLSHRLWQLMGPAGRQDSAPVEPSSPHSY-NH2 (ends and bridges not checked) [AFP-6 analog SEQ ID NO: 35]
20 | 55 | 7.1 | 1.4 | 5.1 | – | – | – | – | RVGCVLGTCQVQNLSHRLWQLMGPAGRQDSAPVDPSSPHSY-NH2 (ends and bridges not checked) [AFP-6 analog SEQ ID NO: 10]
21 | 247 | 1000 | 12.7 | 29 | – | – | – | – | CVLGTCQVQNLSHRLWQLRQESAPVEPSSPHSY-NH2 (ends and bridges not checked) [AFP-6 analog SEQ ID NO: 19]
22 | 198 | 18 | 2.2 | 9.8 | – | – | – | – | CVLGTCQVQNLSHRLWQLMGPAGRQDSAPVDPSSPHSY-NH2 (ends and bridges not checked) [AFP-6 analog SEQ ID NO: 12]
23 | – | 1000 | – | – | – | – | – | – | VGMVLGTMQVQNLSHRLWQLRQDSAPVDPSSPHSY-NH2 [AFP-6 analog SEQ ID NO: 27]
24 | 1000 | 7.1 | 2.3 | 16 | – | – | – | – | TQAQLLRVGCVLGTCQVQNLSHRLWQLMGPAGRQESAPVEPSSPHSY-NH2 (ends and bridges not checked) [AFP-6 analog SEQ ID NO: 32]
25 | – | 120 | 80 | 139 | – | – | – | – | TQAQLLRVGMVLGTMQVQNLSHRLWQLMGPAGRQDSAPVDPSSPHSY-NH2 [AFP-6 analog SEQ ID NO: 25]
26 | 31 | 1000 | – | 14 | – | – | – | – | GCGNLSTCQVQNLSHRLWQLRQDSAPVEPSSPHSY-NH2 (ends and bridges not checked) [AFP-6 analog SEQ ID NO: 39]
